Experimental findings from patent publication US6570069B1, “Nucleic acids encoding plant inhibitors of apoptosis and transgenic cells and plants expressing them” (priority 2000, dated 2003) are described below.

Entries after “also recorded” stand apart in the source; their conditions may differ.

The labels stand for the following.
B1: GST-CpIAP (other)
chain: MSDLRLEEVRLNTFEKWPVSFLSPETMAKNGFYYLGRSDEVRCAFCKVEIMRWKEGEDPAADHKKWAPQCPFVKGIDVCGSIVTTNNIQNTTTHDTIIGPAHPKYAHEAARVKSFHNWPRCMKQRPEQMADAGFFYTGYGDNTKCFYCDGGLKDWEPEDVPWEQHVRWFDRCAYVQLVKGRDYVQKVITEACVLPGENTTVSTAAPVSEPIPETKIEKEPQVEDSKLCKICYVEECIVCFVPCGHVVACAKCALSVDKCPMCRKIVTSVLKVYFS
notes: range 1-275
B5: recombinant purified caspase-3 (enzyme, mammalian)
chain: SGISLDNSYKMDYPEMGLCIIINNKNFHKSTGMTSRSGTDVDAANLRETFRNLKYEVRNKNDLTREEIVELMRDVSKEDHSKRSSFVCVLLSHGEEGIIFGTNGPVDLKKITNFFRGDRCRSLTGKPKLFIIQACRGTELDCGIETDSGVDDDMACHKIPVEADFLYAYSTAPGYYSWRNSKDGSWFIQSLCAMLKQYADKLEFMHILTRVNRKVATEFESFSFDATFHAKKQIPCIVSMLTKELYFYHHHHHHH
notes: also called caspases-3

Experiment [1] addresses GST-SfIAP (Spodoptera frugiperda). In words: cell-based or functional assay.
The next experiment concerns SfIAP. Nature of the experiment: Grim peptide effect on SfIAP-mediated suppression of caspases in cyto c-stimulated cell extracts. In kind it is biochemical, Spodoptera frugiperda. The conditions noted are these: cyto c-stimulated cytosol extracts. The procedure: (§1) Caspase activity was assayed by release of 7-amino-4-trifluoromethyl-coumarin (AFC) from Ac-DEVD or Ac-LEHD-containing synthetic peptides (Calbiochem) using continuous-reading instuments as described (Quan, L. T. et al., (1995) J. Biol. Chem. 270:10377-10379).
(§2) Cytosolic extracts were prepared as described (Deveraux, Q., Takahashi, R., Salvesen, G. S. & Reed, J. C. (1997) Nature 388, 300-303) using human embryonic kidney (HEK) 293 cells. Cells were washed with ice-cold buffer A (20 mM HEPES pH 7.5, 10 mM KCl, 1.5 mM MgCl2, 1 mM EDTA and 1 mM DTT), suspended in 1 volume of buffer A, incubated on ice for 20 mins, and then disrupted by 15 passages through a 26-gauge needle. Cell extracts were purified by centrifugation at 15000 g for 12 mins and supernatants were stored at −80 ° C. For initiating caspase activation, either 100 nM of purified recombinant caspase-8 or 1 μM horse heart cytochrome c (Sigma) together with 1 mM dATP was added to extracts (Deveraux, Q. L., et al., (1998) EMBO J. 17, 2215-2223).
It has been proposed that Drosophila apoptosis-inducers such as Grim function as negative regulators of IAPs (Deveraux, Q. & Reed, J. C. (1998) Genes Dev. 13, 239-252; Wang, S. et al. (1999) Cell 98, 453-463). […]

The target in another experiment is T1, CpIAP (Cydia pomonella granulosis virus, UniProt P41436).
T1 construct: The complete ORF of CpIAP was subcloned into the EcoRI-EcoRV sites of pcDNA3-myc or the EcoRI-SalI sites in pGEX4T-1; GST (N); made in house; host or cells: E. coli BL21 (DE3) containing pT-Trx
T1 sequence (P41436 1-275): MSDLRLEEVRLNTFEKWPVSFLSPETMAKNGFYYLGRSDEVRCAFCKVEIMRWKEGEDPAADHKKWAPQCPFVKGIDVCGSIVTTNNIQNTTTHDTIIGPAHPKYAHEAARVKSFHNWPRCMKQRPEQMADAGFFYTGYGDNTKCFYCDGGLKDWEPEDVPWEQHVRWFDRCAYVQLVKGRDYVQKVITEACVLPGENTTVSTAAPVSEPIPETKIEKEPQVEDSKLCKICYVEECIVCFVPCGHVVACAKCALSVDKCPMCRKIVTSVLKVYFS
In words: Grim peptide effect on CpIAP inhibition of mammalian caspases in vitro. It counts as biochemical, baculovirus.

Experiment [2] addresses T2, recombinant purified caspase-7 (mammalian, UniProt P55210 24-303).
T2 construct: also called caspases-7
T2 sequence: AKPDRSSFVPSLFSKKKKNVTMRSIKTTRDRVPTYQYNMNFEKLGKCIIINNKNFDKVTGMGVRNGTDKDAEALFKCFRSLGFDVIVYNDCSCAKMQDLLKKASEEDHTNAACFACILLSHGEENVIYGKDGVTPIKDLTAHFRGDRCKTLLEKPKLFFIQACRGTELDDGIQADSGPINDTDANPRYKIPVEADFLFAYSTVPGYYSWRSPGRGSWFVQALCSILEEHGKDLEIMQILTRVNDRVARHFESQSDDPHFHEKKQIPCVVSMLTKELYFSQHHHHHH
In words: in vitro binding with recombinant purified caspase; method not described.

The target of experiment [3] is recombinant active caspase-9 (caspase-9 lacking the CARD domain) (mammalian), P55211. In words: cell-based or functional assay.
The target in experiment [4] is B5. In words: in vitro binding with recombinant purified caspase; method not described.
For a further experiment, the target named is T3, [35S]pro-caspase-9 (mammalian, UniProt P55211 1-416, limits assumed).
T3 construct: also called in vitro-translated pro-caspase-9
T3 sequence (looked up): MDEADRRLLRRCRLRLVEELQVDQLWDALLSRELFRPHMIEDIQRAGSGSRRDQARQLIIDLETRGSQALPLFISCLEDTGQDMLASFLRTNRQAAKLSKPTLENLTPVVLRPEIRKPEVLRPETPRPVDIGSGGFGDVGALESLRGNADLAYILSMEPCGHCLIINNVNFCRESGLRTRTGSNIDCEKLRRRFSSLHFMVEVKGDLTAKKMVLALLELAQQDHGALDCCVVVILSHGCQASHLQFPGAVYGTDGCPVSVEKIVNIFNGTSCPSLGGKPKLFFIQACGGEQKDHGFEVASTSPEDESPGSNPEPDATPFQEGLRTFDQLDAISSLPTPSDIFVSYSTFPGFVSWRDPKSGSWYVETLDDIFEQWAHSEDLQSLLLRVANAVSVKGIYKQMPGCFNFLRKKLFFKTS
In words: GST pull-down of in vitro-translated [35S]pro-caspase-9 on glutathione-Sepharose, SDS-PAGE and autoradiography.

In experiment [5] the test system is caspase-3 and similar DEVD-cleaving proteases in cell extracts treated with cyto c. In words: Cell-free caspase activation induced by cyto c in HEK 293 cytosolic extracts. It counts as biochemical, human. The following applies: recombinant protein, cell extracts treated with cyto c. Here is the method: as §1, §2
To further explore the mechanisms by which SfIAP and CpIAP inhibit mammalian apoptosis, a cell-free system in which exogenously added active caspase-8 or cyto c induces activation of caspase-3 and similar proteases, as measured by hydrolysis of Ac-DEVD-AFC (Quan, L. T. et al., (1995) J. Biol. Chem. 270, 10377-10379) was used. Caspase-8 and cyto c trigger the same apoptosis pathways in extracts which are activated by Fas and Bax in intact cells.

For the next experiment, the target named is T4, pro-caspase-9 (Homo sapiens, UniProt P55211).
T4 construct: host or cells: cell-free in vitro transcription/translation
T4 sequence (P55211 1-416): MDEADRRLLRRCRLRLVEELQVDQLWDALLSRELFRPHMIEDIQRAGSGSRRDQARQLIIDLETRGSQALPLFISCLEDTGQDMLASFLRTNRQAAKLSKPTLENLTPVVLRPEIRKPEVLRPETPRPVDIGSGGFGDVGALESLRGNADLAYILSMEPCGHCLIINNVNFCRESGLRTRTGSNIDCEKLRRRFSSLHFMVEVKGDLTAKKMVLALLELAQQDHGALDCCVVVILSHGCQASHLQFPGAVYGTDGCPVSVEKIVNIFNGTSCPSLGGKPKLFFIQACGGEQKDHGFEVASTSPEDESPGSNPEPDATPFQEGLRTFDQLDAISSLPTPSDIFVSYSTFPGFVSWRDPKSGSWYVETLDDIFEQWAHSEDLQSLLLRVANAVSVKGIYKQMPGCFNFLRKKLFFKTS
In words: GST pull-down binding of [35S]-pro-caspase-9. The conditions noted are these: GST fusion protein on glutathione-Sepharose. More on the design: species or system mammalian. The procedure:
[^35S]Pro-caspase-9 was in vitro transcribed and translated in the presence of [^35S]L-methionine using TNT kit from Promega. Protein were desalted and exchanged into buffer (20 mM HEPES pH 7.5, 10 mM KCl, 1.5 mM MgCl2, 1 mM EDTA and 1 mM DTT) with Bio-spin P-6 columns (Bio-Rad). […] After incubation at 4 ° C. for 1 hour, beads were removed by centrifugation and washed twice with 0.5 ml of 50 mM Tris (pH 7.5), 150 mM NaCl, 2 mm DTT before analysis by SDS-PAGE and autoradiography.

The experiment “GST-CpIAP” addresses B1. Nature of the experiment: in vitro binding with recombinant purified caspase; method not described.

Regarding “Grim peptide (IAP-binding domain of Grim, first 18 amino acids) (from UniProt Q24570 1-18)”, in experiment [1], the restoration of DEVD-cleaving caspase activity in cyto c-stimulated cell extracts suppressed by SfIAP is 5 fold excess.
“Grim peptide: peptide corresponding to the IAP-binding domain of Grim (first 18 amino acid of Grim) (MAIAYFIPDQAQLLARSY; UniProt Q24570 1-18, looked up, fragment)”: in the experiment with SfIAP, the “effect on SfIAP inhibition of cyto c-induced activation of DEVD-cleaving caspases” value was “abrogated this inhibitory effect of SfIAP in a concentration-dependent manner; also recorded: negate the ability of SfIAP and CpIAP to inhibit mammalian caspases”; the “excess of peptide relative to SfIAP resulting in complete restoration of caspase activity” value is recorded as 5 fold. Further, in the experiment with CpIAP, the “effect on ability of CpIAP to inhibit mammalian caspases” value is “negate the ability of SfIAP and CpIAP to inhibit mammalian caspases”.
On to B1, for which the binding result in experiment [2] is “no binding”.

B2: GST-SfIAP (other, not shown: a dimerising Fc or GST)
chain: MWSCSLPCWNTKKSGLQMDITKVASNGSSSTLTLFKSGSLEAKIRPLAPLMLPTPSYDSNAGSPSLSPSTPCSSSSFSIDKTDNHDTFGFSADTVDMRKEDERMKTFEKWPVSFLSGEQLARNGFYYLGRRDEARCAFCKVEIMRWVEGDDPAKDHQRWAPQCPFVRKLNGTAAADTGSSGQDECGARAAPSGTSPPRMAGPVHPRYASEAARLRSFKDWPRCMRQKPEELAEAGFFYTGQGDKTKCFYCDGGLKDWENHDVPWEQHARWFDRCAYVQLVKGREYVQKVISEACEVSASEAERDVAPARTAEPSPPAEAPENSVDDSKLCKICYAEERNVCFVPCGHVVACAKCALAADKCPMCRRTFQNAVRLYFS
notes: also called recombinant SfIAP; recombinant-purified SfIAP
Take B2: the molar-excess relative to caspase-9 which produced ~50% inhibition of protease activity (Ac-LEHD-AFC substrate) (fold molar excess) in experiment [3] turned out to be 8. For the same molecule, the binding result in experiment [4] and in experiment [2] was “no binding” in each case.

B3: GST-XIAP-BIR1 (other, human, UniProt P98170 1-123, looked up, not shown: a dimerising Fc or GST)
chain: MTFNSFEGSKTCVPADINKEEEFVEEFNRLKTFANFPSGSPVSASTLARAGFLYTGEGDTVRCFSCHAAVDRWQYGDSAVGRHRKVSPNCRFINGFYLENSATQSTNSGIQNGQYKVENYLGS
notes: domain: BIR1; also called BIR1 domain of XIAP
B3: in experiment [35S]pro-caspase-9, the binding result was “no binding”.

B4: XIAP-BIR1: control protein consisting of the BIR1 domain of XIAP (protein)
chain: MTFNSFEGSKTCVPADINKEEEFVEEFNRLKTFANFPSGSPVSASTLARAGFLYTGEGDTVRCFSCHAAVDRWQYGDSAVGRHRKVSPNCRFINGFYLENSATQSTNSGIQNGQYKVENYLGS
modifications: left off: a dimerising Fc or GST
For B4, the “effect on hydrolysis of Ac-DEVD-AFC (caspase activity)” value in experiment [5] is “did not interfere with caspase activity”. Moreover, the “binding to pro-caspase-9 (autoradiography)” value in the experiment with pro-caspase-9 is “failed to bind caspase-9”.
With B5, the binding result with GST-CpIAP is on record as “no binding”.
